Experimental data from the nanobody polyreactivity screen of Harvey et al. (2022).

Experiment: yeast display, Sf9 membrane polyspecificity reagent, FACS + sequencing; frameworks hold sequencing errors
Outline: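 In a synthetic yeast display library (Saccharomyces cerevisiae BJ5465), nanobody expression was induced with galactose for 36–48 hours. FACS gates were set low and high (top ~1%) using anti-HA fluorescence for expression and streptavidin fluorescence for binding of the Sf9 membrane reagent. Each polyreactivity label is drawn from the gate of origin.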

Sequence | polyreactivity (PSR sort gate)
QVQLVESGGGLVQAGGSLRLSCAASGGTFGRNAMGWYRQAPGKERELVATITRRGGSTYYADSVKGRFTISRDNAKNTVYLQMNSLKPEDTAVYYCAAAGRYSNGTGYGYWGQGTQVTVSS | high polyreactivity
QVQLVESGAGVVQAGGSLRLSCAASGFTLHSYAMGWYRQAPGKERELVAAITRSGGGTYYADSVKGRFTISRDNAKKTVYLQMNSLKPEDTAVYYCAARFGGQYQHDYWGQGTQVTVSS | high polyreactivity
QVQLVESGGGLVQAGGSLRLSCAASGNTFGIYAMGWYRQAPGKERELVAAISSGTSTNYADSVKGRFTISRDNAKNTVYLQMNSLKPEDTAVYYCNADDQYQDVREDYWGQGTQVTVSS | low polyreactivity
QVQLVESGGGLVQAGGSLRLSCAASGRIFYYTTMGWSRQAPGKERELVAAISVSGGSTYYADSVKGRFTISRDKAKNTVYLQRNSLKPEDTAVYYCNAKDWYFYRYDYWGQGTQVTVSS | low polyreactivity
QVQLVESGGGLVQAGGSLRLSCAASGSIFGYYAMGWYRKAPGKERELVAAISWSDGSTYYADSVKGRFTISRDNAKNTVYLQMNSLNPEDTAVYYCAARFTPYITSDDGHYDYWGQGTQVTVSS | low polyreactivity
QVQLVESGGGLVQAGGSLRISCAASDAMGWYRQAPGKERELVASISNGVSTNYADSVKGRFTISRDNAKNTVYLQMNSLKPEDTAVYYCAADAKTVGRDDLYWYEVEFDYWGQGTQVNVSS | low polyreactivity
QVQLVESGGGLVQAGGSLRLSCAASGRIYNPNGMGWYRQAPGKERELVAVITRSGTSTYYADSVKGRFTISRDNAKNTVYLQMNSLKPEDTAVYYCNAGKKYVDYGGPSSRYYWGQGTQVTVSS | low polyreactivity
QVQLVDSGGGLVQAGGSLRLSCAASGSIFPDNAMGWYRQAPGKEWEFVAAINWSTGTTYYADSVKGRFTISRDNAKNTVYLQMNSLKPEDTAVYYFNASDQAKYDYWGQGTQVTVSS | low polyreactivity
QVQLVESGGGLVQAGGSLRLSCAASGSTFGPNAMGWYRQAPGKERELVAAITDSGVSTYYAVSVKGRFTISRDNAKYTVYLQMNSLKPEDTAVYYCATDWYLHRFDYWGQGTQVTVSS | low polyreactivity
QVQLVESGGGLVQAGGSLRLSCAASGFIFVLYTMGWYRQAPGKEREMVASITQSGGSTYYADSVKGRFTISRDNAKNTVYLQMNSLKPEDTAVYYCAAVWAHEWWELDYWGQGTQVTVSS | low polyreactivity
QVQLLESGGGLVQAGGSLRLSCAASGSTFDWYVMGWYRQAPGKERELVAAINQGSGSTYYADSVKGRFTISRDNAKNTVYLQMNSLKPEDTAVYYCAADRYGAGYLYWPYDYWGQGTQVTVSS | low polyreactivity
QVQLVESGGGLVQAGGSLRLSCAASGSIFDSYANGWSRQAPGKERELVAAISSRGGRTYYADSVKGRFTISRDNAKNTVYLQMNSLKPEDTAVYYCAAGLYRYYWYGFDYWGQGTQVTVSS | high polyreactivity
QVQLVESGGGLVQAGGSLRLSCAASGFIFPYYAMGWYRQAPGQERELVAAITGGGSRTYYADSVKGRFTISRDNAKNTVYLQMNSLKPEDTAVYYCAKGLSTGRAYRGYDYWGQGTQVTVSS | high polyreactivity
QVQLVESGGGLVQAGGSLRLSCAASGINFESYVMGWYRQAPGKERELVARISYSGGSTYYADSVKGRFTISRDNAKNTVYLQMNSLIPEDTAVYYCNARYLFSGRYSRRMEYWGQGTQVTVSS | high polyreactivity
QVQLVESGGGLVQAGGSLRLSCAASGLIFKSYLMGSYRQAPGKERELVAGITGSGGTTYYADSVKGRFTISRDNAKNTVYLQMNSLKPEDTAVYYCAARSRSRPKYDYWGQGTQVTVSS | high polyreactivity
QVQLVESGGGLVQAGGSLRLSCAASGSYLRYYAMGWYRPARGKERELVAAISRSGTNTYYAHSVKGRFTISRDNAKNTVYLQMNSLKPEDTAVYYCAARGYYRDYDSWGQGTQVTVSS | high polyreactivity
QVHHVETGGGLDQAGGTLRLSCAASGRTFCTNAMGWSRQAPGKEWELVAAISSSGGSTYYADSVKGRFTISRDNAKNTVYLQMNSLKPEDTAVYYCAKGWHRGVGFCYWGQGTQVTVSS | high polyreactivity
QVQLVESGGGLVQAGGSLRLSCAASGFIFEDYAMGWYRQAPGKERELVAAIRSNDDSTYYADSVKGRFTISRDNAKNTVYLQMNSLKPEDTAVYYCAAVRYVHFGYDYWGQGTQVTVSS | high polyreactivity
QVQLVESGGGLVQAGGSLRLSCAASGIIFNYYAMGWYRQAPGKERELVAAISFSGGRTYYADSVKGRFTISRDNAKNTVYLQMNCLKPEDTAVYYCNAVYRNSILAFPGEYDYWGQGTQVTVSS | high polyreactivity
QVQLVESGAGLFKAGGSLRLSCAASGRIFATNAMGWYRQAPGKERELVAAISSSGGSTYYADSVKGRFTISRDNAKNTVYLQMNSLKPEDTAVYDCAAAHSYYVHYYYWGQGTQGTVSS | high polyreactivity
QVQLVESGAGLVKAGGSLRLSCAASGRTLTGNDMGWYRQAPGKERELVAAITARGGSTYYADSVKGRFTISRDNAKNTVYLQMNSLKPEDTAVYYGATLPVRIRRDYWGQGTQVTVSS | high polyreactivity
QVQLVESGGGLVQAGGSLRLSCAASGSIFRRYTMGWYRQAPRKERELVAAISRVGNTNYADSVKGRFTISRDNAKNTVYLQLNSLKPEDTAVYYCAARGIGYRYTPGLNYWGQGTQVTVSS | high polyreactivity

Sequence | polyreactivity (PSR sort gate)
QVQLVESGGGLVQAGGSLRLSCAASGSIFDVYAMGWYRQAPGKERELVAAITGGGSTYYADSVKGRFTISRDNAKNSVYLQMNSLKPEDTAVYYCNADRRRRSGGFAGWHFQRNEYWGHGTQVTVSS | low polyreactivity
QVQLVESGGGLVQAGGSLRLSCAASGSIFSSNAMGWYRQAPGKERELVAAITGSDGSTYYADSVKGRFTISRDNAKNTVYLQMNSLKPEDTAVYYCAAVGRYYYFDGFYYWGQGTQVTVSS | low polyreactivity
QVQLVESGGGLVQAGGSLRLSCAASGGNFLAYAMGWYRQAPGKERELVAAITRRGTRTYYADSVKGRFTISRDNAKNTVYLQMNSLKPEDTAVYYCAADYYPASAGFDYWGQGTQVTVSS | high polyreactivity
QVQLVESGGGLVQAGGSLRLSCAASGSIFLYNAMGWYRQAPGKERELVATITYIGGRTYYADSVKGRFTISRDNAKNTVYLQMNSLKQEDTAVYYCAAEYYVISSPSFYEYDYWGQGTQVTVSS | low polyreactivity
QVQLVESGGGLVQAGGSLRVTCAASGNIFGYYAMGWYRQAPGKERELDAAISSGGTTSYADSVKGRFTISRDNAKNTVYLQLNSLKPEDTAVYYCAARDWYDGFYYWGQGTQVTVSS | low polyreactivity
QVQLVESGGGLVQAGGSLRLSCAASGRIIGFNAMGWYRQAPGKERELVASIRTTGGSTRYADSVKGRFTISRDNAKNTVYLQMNSLKPEDTAVYYCAARSRLRYLYDYWGQVTQVTVSS | high polyreactivity
QVQLVESGGGLVQAGGSLRLSCAASGSTFVGYAMGWYRQAPGKERELVADITSGGGITYYADSVKGRFTISRDNAKNTVYLQMNSLKPEDTAVYYCAVQYYNVLYYQYDYWGQGTQVTVSS | low polyreactivity
QVQLVESGGGLVQAGGSLRLSCAASGITFNSYAMGWYRQAPGKERELVAAISWSGGSTYYADSVKGRFTISRDNAKNTVYLQMNSLKPEDTAVYYCNAEYRYYQKTPGRYTNVEYDYWGQGTQVTVSS | low polyreactivity
QVQLVESGGCLVQAGGSLRLRCAASGPNFPGYTKGWYRHAPRKAREFVAAISYSGGSTYADSVKGRFTISRDNAKNTVYLQMNSLKPEDTSVYYCAVFLQHWLDMYYWGQGTQVNVSS | low polyreactivity
QDHLVESGGGLVQAGGSLRLSCAASGRIFSYYVMGWYRQAPGKERELVAAITSGCSTNYADSVKGRFTISRDNAKNNVYLQMNSLKPEDTAVYYFNRAYTYINRLYGYWGQGTQVTVSS | high polyreactivity
QVQLVESGGGLVQAGGSLRLSCAASGRTFTNNAMGWYRQAPGKERELVARITKTSGSTHYADSVKGRFTNSRDNAKNTVYLQMNSMKPEDTAVYYCATRGHYHGFYYTYPRYDSWGQGTQVTVSS | low polyreactivity
QVQLVESGGVLVQAGASLRLSCAASVRIFWLNARGCYRQAPGKEREFVASITYGSDSTYYSDSVNGRFTISRDNAKNTVYLQMNSLIPEDTSVYYCNREGWHYGPYEYWGQVTQVTVSS | low polyreactivity
QVQLVESGGGLVQAGGSLRLSSAASGFTFAYNDLGWSRQAPGKERELVATITNSGASTSYADSEKGRFTISRDNAKNTVYLQMNSLKPEDTAVYYCNVGLWRYVRFTGRYYPYDYWGQGTQVTVSS | high polyreactivity
QVQLVESGGGLVQAGGSLRLSCAASGSTFTGNAMGWYRQAPGKERELVAAISRSGGSTFYADSVKGRFTISRDNAKNTVYLQMNSLKPEDTAVYYCATRYVVDMDYWGQGTQVTVSS | high polyreactivity
QVQLVESGGGLVQAGGSLRLSCPASGFTFTIYAMGWYRQAPGKERELLATISGRAGRTYYADSVKGRFTISRDNAKNTVYLQMNSLKPEDTAVYDCAARVWYQGYKSMGYWGQGTQVTVSS | high polyreactivity
QVQVVESGGALVQAGGSLRLSCAASGSTFYNYAMGWYRPAPGKERELVAAISSGGGITYYADSVKGRFTISRDNAKNNVYVQMNSLKPEDTAFYYCNARRKYLGYNYWGQGTQVTVSS | high polyreactivity
QVQLVESGGGLVQAGGSLRLSCAASGTIFWIYAMGWYRQAPGKERELVATITRRGGSTYYADSVKGRFTISRDNATNTVYLQMNSLKPEDTAVYFCATEPGYTYLTSYKYDYWGQGTQVTVSS | low polyreactivity
QVQLVESGGGLVQAGRSLRLSCAASGFIFRRYAMGWYRQAPGKEREFVAAISSGDDTDYADSVKGRFTISRDNAKNTVYLQMNSLKPEDTAVYYCAADHRYSVKYYYWGQGTQVTVSS | low polyreactivity
QVQLVESGGGLVQAGGSLRLSCAASGRTFSTYAMGWYRQAPGKERELVAAITTSGGNTYYADSVKGRFTISRDNAKNTVYLQMNSLKPEDTAVYYCNADYFPTYDYWGQGTQVTVSS | low polyreactivity
QVQLQESGGGLVQAGGSQRLSCAASGYIFYFQYMGWYRQATGKEREFVAAISDGANTNYADSVKGRFTISRDNAKNTEYLQMNSLKPEDTAVYYCAVYADENYYFIYWGQGTQVTVSS | low polyreactivity
QVQLVESGAGLVQAGGSLRLSCAASGSTFWYYAMGLYRQAPGKERELVAAITRDGNTYYADSVKGRFTISRDNAMNSFYLQMNSLKREDTAVYYCAAGFYLLGKYDYWGQGTQVTVSS | high polyreactivity
